Patent US20240270866A1 (Alector, published 2024)
Numbering of substitutions follows the chain as printed.

T1: mouse SIRPA overexpressed on CHO cells (mouse, UniProt P97797 32-513)
T1 construct: also called CHO-muSIRPA
T1 sequence: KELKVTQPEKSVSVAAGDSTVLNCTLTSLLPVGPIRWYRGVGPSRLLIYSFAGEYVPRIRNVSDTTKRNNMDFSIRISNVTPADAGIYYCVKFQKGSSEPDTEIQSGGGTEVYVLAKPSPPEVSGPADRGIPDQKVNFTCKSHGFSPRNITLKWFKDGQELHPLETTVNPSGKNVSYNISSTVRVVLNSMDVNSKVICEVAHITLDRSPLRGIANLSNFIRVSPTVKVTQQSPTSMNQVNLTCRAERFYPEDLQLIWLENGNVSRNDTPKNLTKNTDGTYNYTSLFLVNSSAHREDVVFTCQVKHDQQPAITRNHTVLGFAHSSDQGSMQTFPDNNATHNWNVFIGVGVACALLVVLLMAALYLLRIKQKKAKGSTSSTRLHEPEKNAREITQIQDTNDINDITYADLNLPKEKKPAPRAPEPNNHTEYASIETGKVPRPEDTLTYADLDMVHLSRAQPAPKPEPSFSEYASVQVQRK

T2: Mouse SIRPA D1 Fc (mouse, UniProt P97797 32-150, limits assumed)
T2 sequence: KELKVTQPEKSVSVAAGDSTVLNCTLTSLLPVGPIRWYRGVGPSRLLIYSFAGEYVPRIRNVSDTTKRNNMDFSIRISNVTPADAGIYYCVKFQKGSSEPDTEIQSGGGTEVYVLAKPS

B1: SA-4 (antibody, V domains shown)
VH: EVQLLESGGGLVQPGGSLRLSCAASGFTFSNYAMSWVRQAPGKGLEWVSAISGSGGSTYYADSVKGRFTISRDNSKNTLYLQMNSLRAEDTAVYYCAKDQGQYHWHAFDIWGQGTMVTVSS
VL: EIVLTQSPATLSLSPGERATLSCRASQSVSSYLAWYQQKPGQAPRLLIYDASNRATGIPARFSGSGSGTDFTLTISSLEPEDFAVYYCQQDSNFPFTFGGGTKVEIK
notes: IgG
B2: SA-28 Fab (Fab, V domains shown)
VH: QVQLQESGPGLVKPSQTLSLTCTVSGGSISSGGYYWSWIRQHPGKGLEWIGNIYYSGSTYYNPSLKSRVTISVDTSKNQFSLKLSSVTAADTAVYYCARDSDTSWGGFDYWGQGTLVTVSS
VL: EIVLTQSPGTLSLSPGERATLSCRASQSVRSSYLAWYQQKPGQAPRLLIYGASSRATGIPDRFSGSGSGTDFTLTISRLEPEDFAVYYCQQAGVSPYTFGGGTKVEIK
notes: papain Fab
B3: SA-16 Fab (Fab, V domains shown)
VH: QVQLQQWGAGLLKPSETLSLTCAVYGGSFSGYYWSWIRQPPGKGLEWIGEIDHSGSTNYNPSLKSRVTISVDTSKNQFSLKLSSVTAADTAVYYCARDLGPPGPHLDVWGQGTMVTVSS
VL: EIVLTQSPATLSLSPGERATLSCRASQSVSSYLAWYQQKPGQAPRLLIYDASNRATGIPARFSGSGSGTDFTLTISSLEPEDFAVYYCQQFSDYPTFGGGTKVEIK
notes: papain Fab
B4: SA-19-73 Fab (Fab, V domains shown)
VH: QVQLVESGGGLVQPGGSLRLSCAASGFTFSSYAMHWVRQAPGKGLEWVAGILYDGSNKYYADSVKGRFTISRDNSKNTLYLQMNSLRAEDTAVYYCANSDTKYTLGFAFDIWGQGTMVTVSS
VL: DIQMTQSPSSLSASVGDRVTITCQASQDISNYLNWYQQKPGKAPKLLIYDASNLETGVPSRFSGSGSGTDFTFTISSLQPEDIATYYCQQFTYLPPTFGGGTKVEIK
notes: papain Fab
B5: SA-19-75 Fab (Fab, V domains shown)
VH: B4 VH with L11V, G16R, A33G, G50V, L52A, Y59L, N98L, S99M, D100R
VL: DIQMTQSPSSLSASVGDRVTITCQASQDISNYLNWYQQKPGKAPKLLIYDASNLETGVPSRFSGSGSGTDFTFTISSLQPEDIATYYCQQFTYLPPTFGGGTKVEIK
notes: papain Fab
B6: SA-19-74 Fab (Fab, V domains shown)
VH: B4 VH with L11V, G16R, T28A, N98R, S99H, D100S, T101Q
VL: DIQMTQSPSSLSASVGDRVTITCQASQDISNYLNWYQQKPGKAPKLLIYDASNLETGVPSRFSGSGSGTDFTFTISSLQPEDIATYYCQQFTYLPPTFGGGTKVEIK
notes: papain Fab
B7: SA-19-81 Fab (Fab, V domains shown)
VH: B4 VH with L11V, G16R, F29S, A33G, G50V, L52A, Y59L, N98R, S99T, D100P
VL: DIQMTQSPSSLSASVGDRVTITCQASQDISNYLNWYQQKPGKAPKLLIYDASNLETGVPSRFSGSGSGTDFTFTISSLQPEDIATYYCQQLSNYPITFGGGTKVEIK
notes: papain Fab
B8: SA-19-78 Fab (Fab, V domains shown)
VH: B4 VH with L11V, G16R, A33G, G50V, L52A, Y59L, N84D, N98T
VL: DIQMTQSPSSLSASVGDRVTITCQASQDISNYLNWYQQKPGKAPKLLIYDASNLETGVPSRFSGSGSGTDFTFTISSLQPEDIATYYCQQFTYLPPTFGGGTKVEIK
notes: papain Fab
B9: SA-19-77 Fab (Fab, V domains shown)
VH: B4 VH with L11V, G16R, A33G, H35A, G50Q, K58E, N98R, S99D, D100L
VL: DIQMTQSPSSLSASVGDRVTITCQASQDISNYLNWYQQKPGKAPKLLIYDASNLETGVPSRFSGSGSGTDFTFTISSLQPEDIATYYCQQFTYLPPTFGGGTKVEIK
notes: papain Fab
B10: SA-19-72 Fab (Fab, V domains shown)
VH: B4 VH with L11V, G16R, R19G, N98R, D100N, T101E
VL: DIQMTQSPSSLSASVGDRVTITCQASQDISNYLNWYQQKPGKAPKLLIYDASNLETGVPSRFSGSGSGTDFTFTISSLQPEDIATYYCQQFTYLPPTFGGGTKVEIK
notes: papain Fab
B11: SA-19-84 Fab (Fab, V domains shown)
VH: B4 VH with L11V, G16R, A33G, G50V, L52A, Y59L, N98R, S99T, D100Q, T101L
VL: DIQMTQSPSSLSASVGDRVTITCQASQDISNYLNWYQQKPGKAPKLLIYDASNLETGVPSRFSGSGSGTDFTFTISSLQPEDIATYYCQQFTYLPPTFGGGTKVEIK
notes: papain Fab
B12: SA-19-83 Fab (Fab, V domains shown)
VH: B4 VH with L11V, G16R, S30D, A33L, G50S, L52I, N98S, S99V, D100R
VL: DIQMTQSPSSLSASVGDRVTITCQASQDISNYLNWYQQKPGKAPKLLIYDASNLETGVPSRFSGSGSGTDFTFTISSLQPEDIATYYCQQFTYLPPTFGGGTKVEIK
notes: papain Fab
B13: SA-19-80 Fab (Fab, V domains shown)
VH: EVQLLESGGGVVQPGRSLRLSCAASGFTFSSYGMHWVRQAPGKGLEWVAGILYDGSNKYYADSVKGRFTISRDNSKNTLYLQMDGLRAEDTAVYYCARHSVKYTLGFAFDIWGQGTMVTVSS
VL: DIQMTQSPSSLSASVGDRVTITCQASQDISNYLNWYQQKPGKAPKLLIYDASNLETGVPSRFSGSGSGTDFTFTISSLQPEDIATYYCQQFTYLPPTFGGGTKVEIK
notes: papain Fab
B14: SA-19-79 Fab (Fab, V domains shown)
VH: B4 VH with L11V, G16R, A33G, G50V, L52A, Y59I, N98T, S99T
VL: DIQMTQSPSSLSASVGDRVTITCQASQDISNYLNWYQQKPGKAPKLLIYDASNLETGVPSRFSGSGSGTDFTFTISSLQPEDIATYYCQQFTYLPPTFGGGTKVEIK
notes: papain Fab
B15: SA-19-82 Fab (Fab, V domains shown)
VH: B4 VH with L11V, G16R, N98R, S99H, D100V, T101L
VL: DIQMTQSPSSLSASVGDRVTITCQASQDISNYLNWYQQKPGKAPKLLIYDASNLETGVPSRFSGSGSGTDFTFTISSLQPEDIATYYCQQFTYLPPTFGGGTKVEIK
notes: papain Fab
B16: SA-19-76 Fab (Fab, V domains shown)
VH: QVQLVESGGGVVQPGRSLRLSCAASGFTFSSYGMHWVRQAPGKGLEWVAVIAYDGSNKLYADSVKGRFTISRDNAKNSLYLQMNSPRAEDTAVYYCATMRTKYTLGFAFDIWGQGTMVTVSS
VL: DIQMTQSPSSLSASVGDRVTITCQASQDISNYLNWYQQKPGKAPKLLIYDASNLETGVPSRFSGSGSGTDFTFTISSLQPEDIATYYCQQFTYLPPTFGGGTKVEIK
notes: papain Fab
B17: SA-5-57 Fab (Fab, V domains shown)
VH: EVQLLESGGGLVQPGGSLRLSCAASGFTFDSYAMSWVRQAPGKGLEWVSATSGGGGSTYHADPVKGRFTISRDNSKNTLYLQMNSLRAEDTAVYYCAKDITDDFWSVTPPYFDLWGRGTLVTVSS
VL: DIQLTQSPSSVSASVGDRVTITCRASQDISSWLAWYQQKPGKAPKLLIYAASSLQSGVPSRFSGSGSGTDFTLTISSLQPEDFATYYCQQGYIFPRTFGGGTKVEIK
notes: papain Fab
B18: SA-56-87 Fab (Fab, V domains shown)
VH: EVQLVESGGGVVQPGRSLRLSCAASGFTFSYYGMSWVRQAPGKGLEWVASIWVDGSNKYYADSVKGRFTISRDNSKNTLYLQMNSLRAEDTAVYYCAFGLETYSGPNWFDPWGQGTLVTVSS
VL: B17 VL with L4M, D28G, G91A, Y92I, I93Y, R96I
notes: papain Fab
B19: SA-56-95 Fab (Fab, V domains shown)
VH: B18 VH with V5L, S30A, Y31H, S35A, S50V, N57P, F98V, G99A, L100R
VL: B17 VL with L4M, D28G, G91A, Y92I, I93Y, R96I
notes: papain Fab
B20: SA-56-91 Fab (Fab, V domains shown)
VH: B18 VH with S30A, Y31H, S35A, F98T, G99A, L100V
VL: B17 VL with L4M, D28G, G91A, Y92I, I93Y, R96I
notes: papain Fab
B21: SA-56-92 Fab (Fab, V domains shown)
VH: B18 VH with N84D, F98T, L100V
VL: B17 VL with L4M, D28G, G91A, Y92I, I93Y, R96I
notes: papain Fab
B22: SA-56-85 Fab (Fab, V domains shown)
VH: B18 VH with V5L, R19G, F27S, N77S, F98R, L100V
VL: B17 VL with L4M, D28G, G91A, Y92I, I93Y, R96I, I106N, K107Q
notes: papain Fab
B23: SA-56-89 Fab (Fab, V domains shown)
VH: B18 VH with R16G, I70V, N84D, F98R, L100V
VL: B17 VL with L4M, D28G, G91A, Y92I, I93Y, R96I
notes: papain Fab
B24: SA-56-93 Fab (Fab, V domains shown)
VH: B18 VH with V5L, T78A, F98V, G99S, L100R
VL: B17 VL with L4M, D28G, G91A, Y92I, I93Y, R96I
notes: papain Fab
B25: SA-56-86 Fab (Fab, V domains shown)
VH: B18 VH with E1Q, R16G, N57S, F98R, L100V
VL: B17 VL with L4M, D28G, G91A, Y92I, I93Y, R96I
notes: papain Fab
B26: SA-56-88 Fab (Fab, V domains shown)
VH: B18 VH with V64A, F98E, L100K
VL: B17 VL with L4M, D28G, G91A, Y92I, I93Y, R96I
notes: papain Fab
B27: SA-56-96 Fab (Fab, V domains shown)
VH: B18 VH with V5L, Y31S, G33A, S35G, S50V, N57L, F98T, L100R
VL: B17 VL with L4M, D28G, G91A, Y92I, I93Y, R96I
notes: papain Fab
B28: SA-5-58 Fab (Fab, V domains shown)
VH: B17 VH with T51I, G54S, P63S, I100T, T101G, D102I, D103S, F104L
VL: B17 VL
notes: papain Fab
B29: SA-5-59 Fab (Fab, V domains shown)
VH: EVQLLESGGGLVQPGGSLRLSCAASGFTFDNYAMSWVRQAPGEGLEWVSAVSGSGGSTYYADSVRGRFTISRDNSKNTLYLQMDSLRAEDTAVYYCAKDTGIDFWARTPPYFDLWGRGTLVTVSS
VL: B17 VL
notes: papain Fab

biological target: T1, mouse SIRPA overexpressed on CHO cells; assay: flow, CHO-muSIRPA;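 as to relative MFI: antibody binding measured by flow cytometry: cells stained with 1 ug/ml test antibody for 1 h on ice, detected with PE-labelled secondary antibody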

| binding result | Binder |
| --- | --- |
| no binding (tested: 1 ug/ml) | B1 |

biological target: T3, Human SIRPA D1 Fc (human, UniProt P78324 32-137); assay: ForteBio IgG avid;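 also: antibody IgG captured on AHQ biosensors, then 100 nM Fc-fused SIRP antigen applied for 3 min, followed by 3 min buffer dissociation, kinetics fitted to a 1:1 model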
T3 construct: not shown: human IgG1 Fc

| Kd | Binder |
| --- | --- |
| 30.2 nM | B1 |

biological target: T2, Mouse SIRPA D1 Fc; assay: ForteBio IgG avid;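 also: antibody IgG captured on AHQ biosensors, then 100 nM Fc-fused SIRP antigen applied for 3 min, followed by 3 min buffer dissociation, kinetics fitted to a 1:1 model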
Procedure: (§1) Briefly, ForteBio affinity measurements were performed by loading IgGs on-line onto AHQ sensors. Sensors were equilibrated off-line in assay buffer for 30 min and then monitored on-line for 60 seconds for baseline establishment. For avid binding measurement, sensors with loaded IgGs were exposed to 100 nM antigen (human SIRPA or SIRPβ1 Fc fusion) for 3 min, afterwards they were transferred to assay buffer for 3 min for off-rate measurement. Additional avid binding was determined by loading biotinylated SIRPA monomer on SA sensors and exposure to 100 nM IgG in solution. Monovalent binding measurements were obtained by loading human SIRPA or SIRPβ1 Fc fusion antigens to AHQ sensor and followed by exposure to 100 nM anti-SIRPA antibody Fab. Additional monovalent measurements were made by loading biotinylated human SIRPA or SIRPβ1 monomer to SA sensor followed by exposure to 100 nM Fab in solution. Kinetics data were fit using a 1:1 binding model in the data analysis software provided by ForteBio.

| binding result | Binder |
| --- | --- |
| no binding (tested: 100 nM) | B1 |

biological target: Human SIRPb D1 Fc (human, UniProt O00241 30-148, limits assumed); assay: ForteBio IgG avid;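 also: antibody IgG captured on AHQ biosensors, then 100 nM Fc-fused SIRP antigen applied for 3 min, followed by 3 min buffer dissociation, kinetics fitted to a 1:1 model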
Sequence (O00241 30-148 limits assumed): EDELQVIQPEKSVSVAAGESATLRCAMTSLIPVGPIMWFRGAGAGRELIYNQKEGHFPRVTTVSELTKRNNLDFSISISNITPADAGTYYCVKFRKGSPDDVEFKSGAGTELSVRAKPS
Procedure: as §1

| binding result | Binder |
| --- | --- |
| no binding (tested: 100 nM) | B1 |

biological target: T4, human SIRPA overexpressed on CHO cells (human, UniProt P78324 31-504); assay: flow, CHO-huSIRPA;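 also: Anti-SIRPA antibodies applied at 1 µg/mL for 1 h on ice, binding read by flow cytometry using a PE-labelled secondary antibody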
T4 construct: also called CHO-huSIRPA

| relative MFI | Binder |
| --- | --- |
| 0.87 fold over background | B1 |

biological target: T1, mouse SIRPA overexpressed on CHO cells; assay: flow, CHO-muSIRPA; remark: another data set of the same source;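 as to relative MFI: antibody binding measured by flow cytometry: cells stained with 1 ug/ml test antibody for 1 h on ice, detected with PE-labelled secondary antibody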
Procedure: Initial characterization of anti-SIRPA antibodies of the present disclosure involved determining their ability to bind cell lines overexpressing human or mouse SIRPA. Cells were harvested, plated at 10⁶/ml in a 96 well plate, washed, and incubated in 100 ul PBS containing 1 ug/ml Mab for 1 hour in ice. Cells were then washed twice and incubated in 100 ul PBS containing 5 ug/ml PE-conjugated secondary antibody for 30 minutes in ice. Cells were washed twice in cold PBS and acquired on a BD FACS Canto. Data analysis and calculation of mean fluorescence intensity (MFI) values or % positive cells was performed with FlowJo® (TreeStar) software version 10.0.7.

| relative MFI | Binder |
| --- | --- |
| 0.491 fold over background | B1 |

biological target: T5, human SIRPA Fc fusion antigen (human, UniProt P78324 31-373); assay: ForteBio Fab monovalent
T5 construct: heterologous signal peptide; not shown: human IgG1 Fc

| Kd | Binder |
| --- | --- |
| 486 nM | B2 |
| 257 nM | B3 |

biological target: T5, human SIRPA Fc fusion antigen; assay: ForteBio Fab monovalent; remark: another data set of the same source
Procedure: Briefly, ForteBio affinity measurements were performed by loading immunoglobulins (IgGs) on-line onto AHQ sensors. Sensors were equilibrated off-line in assay buffer for 30 min and then monitored on-line for 60 seconds for baseline establishment. For avid binding measurement, sensors with loaded IgGs were exposed to 100 nM antigen (human SIRPA or SIRPβ1 Fc fusion) for 3 min, afterwards they were transferred to assay buffer for 3 min for off-rate measurement. […] Monovalent binding measurements were obtained by loading human SIRPA Fc fusion antigens to AHQ sensor and followed by exposure to 100 nM anti-SIRPA antibody Fab.
Additional monovalent measurements were made by loading biotinylated human SIRPA monomer to SA sensor followed by exposure to 100 nM Fab in solution. Kinetics data were fit using a 1:1 binding model in the data analysis software provided by ForteBio.

| Kd | Binder |
| --- | --- |
| 1.62 nM | B4 |
| 1.67 nM | B5 |
| 3.16 nM | B6 |
| 1.53 nM | B7 |
| 1.53 nM | B8 |
| 3.61 nM | B9 |
| 4.95 nM | B10 |
| 2.02 nM | B11 |
| 1.44 nM | B12 |
| 2.26 nM | B13 |
| 0.689 nM | B14 |
| 1.44 nM | B15 |
| 1.64 nM | B16 |
| 23.3 nM | B17 |
| 1.1 nM | B18 |
| 2.98 nM | B19 |
| 1.64 nM | B20 |
| 1.29 nM | B21 |
| 0.772 nM | B22 |
| 1.03 nM | B23 |
| 2.34 nM | B24 |
| 1.02 nM | B25 |
| 0.836 nM | B26 |
| 5.35 nM | B27 |

biological target: T6, human SIRPβ1 Fc fusion antigen (human, UniProt O00241 30-371); assay: ForteBio Fab monovalent
T6 construct: not shown: human IgG1 Fc
T6 sequence (O00241 30-371 limits assumed): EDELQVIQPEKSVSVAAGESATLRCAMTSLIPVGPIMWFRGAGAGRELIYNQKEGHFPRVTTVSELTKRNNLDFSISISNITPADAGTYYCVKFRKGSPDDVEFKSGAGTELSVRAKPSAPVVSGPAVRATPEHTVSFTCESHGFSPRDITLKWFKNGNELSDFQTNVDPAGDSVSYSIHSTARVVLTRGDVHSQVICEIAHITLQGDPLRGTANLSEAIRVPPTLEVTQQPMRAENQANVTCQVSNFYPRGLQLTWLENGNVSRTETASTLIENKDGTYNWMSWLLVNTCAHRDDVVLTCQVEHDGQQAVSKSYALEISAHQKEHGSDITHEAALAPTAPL

| binding result | Binder |
| --- | --- |
| no binding (tested: 100 nM) | B17 |
| no binding (tested: 100 nM) | B28 |
| no binding (tested: 100 nM) | B18 |
| no binding (tested: 100 nM) | B29 |
| no binding (tested: 100 nM) | B19 |
| no binding (tested: 100 nM) | B20 |
| no binding (tested: 100 nM) | B21 |
| no binding (tested: 100 nM) | B22 |
| no binding (tested: 100 nM) | B23 |
| no binding (tested: 100 nM) | B24 |
| no binding (tested: 100 nM) | B26 |
| no binding (tested: 100 nM) | B27 |

biological target: T7, biotinylated human SIRPA (monomer) (human, UniProt P78324 31-373, limits assumed, biotinylated); assay: MSD-SET, Fab, equilibrium;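 also: solution equilibrium titration, free antigen captured on antibody-coated MSD plates and detected by electrochemiluminescence with labeled streptavidin, percent free antigen versus titrated antibody fit to quadratic model for KD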
T7 construct: monomer made by IdeS cleavage of a SIRPA Fc fusion; also called recombinant human SIRPA
Procedure: Antibodies (20 nM in PBS) were coated onto standard bind MSD-ECL plates overnight at 4° C. or at room temperature for 30 min. Plates were then blocked with 1% BSA for 30 min with shaking at 700 rpm, followed by three washes with wash buffer (PBSF+0.05% Tween 20). SET samples were applied and incubated on the plates for 150s with shaking at 700 rpm followed by one wash. Antigen captured on a plate was detected with 250 ng/ml sulfotag-labeled streptavidin in PBSF by incubation on the plate for 3 min. The plates were washed three times with wash buffer and then read on the MSD Sector Imager 2400 instrument using 1× Read Buffer T with surfactant. The percent free antigen was plotted as a function of titrated antibody in Prism and fit to a quadratic equation to extract the KD. To improve throughput, liquid handling robots were used throughout MSD-SET experiments, including SET sample preparation.

| Kd | Binder |
| --- | --- |
| 0.18 nM | B4 |
| 0.42 nM | B5 |
| 1.1 nM | B6 |
| 0.37 nM | B7 |
| 0.084 nM | B8 |
| 1.2 nM | B9 |
| 0.88 nM | B10 |
| 0.64 nM | B11 |
| 0.31 nM | B12 |
| 0.22 nM | B13 |
| 0.14 nM | B14 |
| 0.27 nM | B15 |
| 0.42 nM | B16 |
| 0.17 nM | B18 |
| 0.52 nM | B19 |
| 0.51 nM | B20 |
| 0.35 nM | B21 |
| 0.12 nM | B22 |
| 0.25 nM | B23 |
| 0.36 nM | B24 |
| 0.18 nM | B25 |
| 0.16 nM | B26 |
| 1.6 nM | B27 |
